Experimental data taken from patent US20130171155A1.

How the values were obtained:
Experiment in all cases: cell-based or functional assay
[1] = target: dog factor D (in dog serum) (dog); details: scale: times less effective than on human factor D
[2] = target: human factor D purified from human serum (human) (UniProt P00746)
[3] = target: baboon factor D (in baboon serum or plasma) (baboon)

UniProt P00746, sequence (P00746 26-253 N180D): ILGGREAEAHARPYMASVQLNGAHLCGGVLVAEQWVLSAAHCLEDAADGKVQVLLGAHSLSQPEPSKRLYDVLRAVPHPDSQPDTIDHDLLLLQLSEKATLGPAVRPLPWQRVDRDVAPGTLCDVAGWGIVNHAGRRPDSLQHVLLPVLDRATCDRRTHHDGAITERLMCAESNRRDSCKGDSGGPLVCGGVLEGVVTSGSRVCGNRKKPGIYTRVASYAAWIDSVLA

MAb 166-32 (antibody) was tested, and the neutralization of dog factor D in hemolytic assays [1] was greater than 10, the alternative complement activity (hemolytic assay, unsensitized rabbit RBCs) in paired extracorporeal circuits [2] was 18 µg/mL and the alternative pathway hemolytic activity of plasma from extracorporeal circuits (human whole blood) (molar ratio (MAb:factor D)) [2] was 1.5. For the same substance, the factor D dependent hemolysis of unsensitized rabbit RBCs (factor D depleted human serum with added factor D) [2] was 0.3 µg/mL and the inhibition of alternative complement hemolytic activity of baboon plasma, 18 hours after CPB [3] was 79.3%.
